Source: article doi:10.1101/2020.04.20.033787 (bioRxiv, 2020)

Molecular target: SBF (^FLAGSwi4-Swi6 complex) (S. cerevisiae, UniProt P25302 1-1093; P09959 1-803)
Assay: pull-down

SBF (^FLAGSwi4-Swi6 complex), sequence (P25302 whole entry, chain 1 of 2): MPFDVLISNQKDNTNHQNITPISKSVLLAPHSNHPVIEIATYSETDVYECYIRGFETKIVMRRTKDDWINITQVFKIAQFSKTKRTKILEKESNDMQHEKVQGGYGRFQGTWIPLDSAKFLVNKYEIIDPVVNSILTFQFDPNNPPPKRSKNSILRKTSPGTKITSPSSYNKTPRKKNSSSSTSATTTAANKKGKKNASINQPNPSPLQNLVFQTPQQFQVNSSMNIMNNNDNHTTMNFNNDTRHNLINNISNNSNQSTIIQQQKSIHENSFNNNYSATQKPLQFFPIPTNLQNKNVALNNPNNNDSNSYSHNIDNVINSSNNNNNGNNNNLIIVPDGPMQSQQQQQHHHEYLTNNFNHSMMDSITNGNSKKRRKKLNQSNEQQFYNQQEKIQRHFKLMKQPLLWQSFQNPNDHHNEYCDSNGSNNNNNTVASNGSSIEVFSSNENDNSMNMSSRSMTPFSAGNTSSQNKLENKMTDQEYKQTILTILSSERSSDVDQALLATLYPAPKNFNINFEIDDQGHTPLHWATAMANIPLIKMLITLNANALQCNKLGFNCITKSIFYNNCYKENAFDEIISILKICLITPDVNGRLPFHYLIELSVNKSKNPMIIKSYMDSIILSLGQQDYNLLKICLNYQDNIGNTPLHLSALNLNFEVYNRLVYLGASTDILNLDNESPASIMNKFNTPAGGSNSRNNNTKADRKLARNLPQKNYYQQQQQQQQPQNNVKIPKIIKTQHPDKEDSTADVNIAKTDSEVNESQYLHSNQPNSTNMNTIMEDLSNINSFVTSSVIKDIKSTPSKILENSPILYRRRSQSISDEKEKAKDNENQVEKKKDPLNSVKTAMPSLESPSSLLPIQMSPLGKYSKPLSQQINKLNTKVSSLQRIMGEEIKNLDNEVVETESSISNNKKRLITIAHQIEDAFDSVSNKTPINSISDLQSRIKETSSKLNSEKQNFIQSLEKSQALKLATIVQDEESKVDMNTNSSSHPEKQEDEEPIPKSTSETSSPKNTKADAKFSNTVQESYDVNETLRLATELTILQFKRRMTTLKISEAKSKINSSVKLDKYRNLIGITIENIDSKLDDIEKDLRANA
SBF (^FLAGSwi4-Swi6 complex), sequence (P09959 whole entry, chain 2 of 2): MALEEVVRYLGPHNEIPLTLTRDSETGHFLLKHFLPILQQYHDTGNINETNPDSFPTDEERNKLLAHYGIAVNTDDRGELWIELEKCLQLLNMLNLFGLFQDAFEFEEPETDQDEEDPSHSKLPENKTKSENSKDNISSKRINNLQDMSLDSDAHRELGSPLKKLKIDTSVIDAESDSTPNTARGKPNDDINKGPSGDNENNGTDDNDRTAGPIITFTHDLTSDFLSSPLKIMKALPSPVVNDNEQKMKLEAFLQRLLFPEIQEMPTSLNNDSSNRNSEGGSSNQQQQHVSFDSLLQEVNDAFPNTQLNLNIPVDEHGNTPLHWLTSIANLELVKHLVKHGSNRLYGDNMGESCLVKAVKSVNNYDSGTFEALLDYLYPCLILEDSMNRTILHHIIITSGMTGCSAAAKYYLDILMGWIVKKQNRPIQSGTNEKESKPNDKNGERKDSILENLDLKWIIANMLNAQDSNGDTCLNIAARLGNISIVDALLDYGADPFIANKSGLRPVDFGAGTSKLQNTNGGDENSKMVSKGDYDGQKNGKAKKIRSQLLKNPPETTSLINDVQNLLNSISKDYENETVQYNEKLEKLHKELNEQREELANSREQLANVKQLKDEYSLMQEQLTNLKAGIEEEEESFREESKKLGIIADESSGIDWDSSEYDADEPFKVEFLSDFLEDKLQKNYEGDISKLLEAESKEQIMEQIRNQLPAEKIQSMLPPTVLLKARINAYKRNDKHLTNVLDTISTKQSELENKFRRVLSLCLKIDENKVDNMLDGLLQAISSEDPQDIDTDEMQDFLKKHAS

B1: ^GSTWhi5 (recombinant) (natural protein, S. cerevisiae, UniProt Q12416 1-295, looked up)
chain: MSLRTPKRSRTSDEQEQEQEQEQVQNPDTHVNNEHQQRPGPTTLLSTPVRLKNGFGTPSPPSPPGITKSITKSRRRPSTTSLQGIFMSPVNKRRVGITAHGRVYDHNDDGHESESEDDENEEENENQKKYDGHVSMPLLPPTTPKSRRSEVFLSPSPRLRSPPTAARRSTGERPIREISHTLRTRLNYALVKLQNGWTDKTLPELETELAPAVQTPPRRYHNRFPDSADAGTSAHTAFLQALGGHPPREEATAVETLMLLSSPTKKQQHRPVPATSAGEPTDETEPESDTEVETS
  binding result: binds
